Reference: patent publication US20260242419A1, “A CYCLIC PEPTIDE FOR TRAPPING INTERLEUKIN-1 BETA” (Merck Sharp & Dohme LLC, priority 2023, published 2026)
Starred links: 1 amine or outer side, 2 acyl side, 3 side chain; linkers in the order of their positions; H or OH if unused. Non-standard residues stand in square brackets, D forms with d. dProc3Bn4Pyrim2NMe = (2R,3S)-3-[[4-[2-(methylamino)pyrimidin-5-yl]phenyl]methyl]pyrrolidine-2-carboxylic acid, CNc1ncc(-c2ccc(C[C@H]3CCN([*:1])[C@H]3C(=O)[*:2])cc2)cn1; dProc3Bn4Pyrim = (2R,3S)-3-[(4-pyrimidin-5-ylphenyl)methyl]pyrrolidine-2-carboxylic acid, O=C([C@H]1[C@@H](Cc2ccc(-c3cncnc3)cc2)CCN1[*:1])[*:2]; TyrEtNAc = (2S)-3-[4-(2-acetamidoethoxy)phenyl]-2-amino-propanoic acid, CC(=O)NCCOc1ccc(C[C@H](N[*:1])C(=O)[*:2])cc1; dPro(4R-(4-pyridylmethyl)) = O=C(O)[C@H]1C[C@@H](Cc2ccncc2)CN1; dPro(3S-(4-Br-benzyl)) = O=C(O)[C@@H]1NCC[C@@H]1Cc1ccc(Br)cc1; Trp(βS-Me,4-F) = C[C@@H](c1c[nH]c2cccc(F)c12)[C@H](N)C(=O)O; Bip(4'-COOH) = N[C@@H](Cc1ccc(-c2ccc(C(=O)O)cc2)cc1)C(=O)O; Ala(1-bicyclo(1.1.1)pentyl) = N[C@@H](CC12CC(C1)C2)C(=O)O; dPro(4R-Bzl(4-F)) = O=C(O)[C@H]1C[C@@H](Cc2ccc(F)cc2)CN1; Ala(pyrimidin-5-yl) = N[C@@H](Cc1cncnc1)C(=O)O; Phe(4-COOH) = N[C@@H](Cc1ccc(C(=O)O)cc1)C(=O)O; Pro(cis-4-F) = O=C(O)[C@@H]1C[C@H](F)CN1; 4Pal = N[C@@H](Cc1ccncc1)C(=O)O; Cit = NC(=O)NCCC[C@H](N)C(=O)O; Dab = NCC[C@H](N)C(=O)O; Dap = NC[C@H](N)C(=O)O; Aib = CC(C)(N)C(=O)O

B1: SEQ ID NO: 53 (peptide)
peptide: cyclo([Bip(4'-COOH)][4Pal][Phe(4-COOH)]G[Pro(cis-4-F)][Trp(βS-Me,4-F)][Aib]EW[Aib][Ala(pyrimidin-5-yl)]Q[Dab]G[dProc3Bn4Pyrim])
SMILES: C[C@@H](c1c[nH]c2cccc(F)c12)[C@@H]1NC(=O)[C@@H]2C[C@H](F)CN2C(=O)CNC(=O)[C@H](Cc2ccc(C(=O)O)cc2)NC(=O)[C@H](Cc2ccncc2)NC(=O)[C@H](Cc2ccc(-c3ccc(C(=O)O)cc3)cc2)NC(=O)[C@H]2[C@@H](Cc3ccc(-c4cncnc4)cc3)CCN2C(=O)CNC(=O)[C@H](CCN)NC(=O)[C@H](CCC(N)=O)NC(=O)[C@H](Cc2cncnc2)NC(=O)C(C)(C)NC(=O)[C@H](Cc2c[nH]c3ccccc23)NC(=O)[C@H](CCC(=O)O)NC(=O)C(C)(C)NC1=O
B2: SEQ ID NO: 50 (peptide)
peptide: cyclo([TyrEtNAc][Ala(1-bicyclo(1.1.1)pentyl)][Phe(4-COOH)]G[Pro(cis-4-F)][Trp(βS-Me,4-F)][Aib]EW[Aib][Ala(pyrimidin-5-yl)]Q[Dab]G[dPro(4R-(4-pyridylmethyl))])
SMILES: CC(=O)NCCOc1ccc(C[C@@H]2NC(=O)[C@H]3C[C@@H](Cc4ccncc4)CN3C(=O)CNC(=O)[C@H](CCN)NC(=O)[C@H](CCC(N)=O)NC(=O)[C@H](Cc3cncnc3)NC(=O)C(C)(C)NC(=O)[C@H](Cc3c[nH]c4ccccc34)NC(=O)[C@H](CCC(=O)O)NC(=O)C(C)(C)NC(=O)[C@H]([C@@H](C)c3c[nH]c4cccc(F)c34)NC(=O)[C@@H]3C[C@H](F)CN3C(=O)CNC(=O)[C@H](Cc3ccc(C(=O)O)cc3)NC(=O)[C@H](CC34CC(C3)C4)NC2=O)cc1
B3: SEQ ID NO: 49 (peptide)
peptide: cyclo([TyrEtNAc][4Pal][Phe(4-COOH)]G[Pro(cis-4-F)][Trp(βS-Me,4-F)][Aib]EW[Aib][Ala(pyrimidin-5-yl)]Q[Dab]G[dPro(4R-(4-pyridylmethyl))])
SMILES: CC(=O)NCCOc1ccc(C[C@@H]2NC(=O)[C@H]3C[C@@H](Cc4ccncc4)CN3C(=O)CNC(=O)[C@H](CCN)NC(=O)[C@H](CCC(N)=O)NC(=O)[C@H](Cc3cncnc3)NC(=O)C(C)(C)NC(=O)[C@H](Cc3c[nH]c4ccccc34)NC(=O)[C@H](CCC(=O)O)NC(=O)C(C)(C)NC(=O)[C@H]([C@@H](C)c3c[nH]c4cccc(F)c34)NC(=O)[C@@H]3C[C@H](F)CN3C(=O)CNC(=O)[C@H](Cc3ccc(C(=O)O)cc3)NC(=O)[C@H](Cc3ccncc3)NC2=O)cc1
B4: SEQ ID NO: 52 (peptide)
peptide: cyclo([Bip(4'-COOH)][4Pal][Phe(4-COOH)]G[Pro(cis-4-F)][Trp(βS-Me,4-F)][Aib]EW[Aib][Cit]Q[Dab]G[dPro(4R-Bzl(4-F))])
SMILES: C[C@@H](c1c[nH]c2cccc(F)c12)[C@@H]1NC(=O)[C@@H]2C[C@H](F)CN2C(=O)CNC(=O)[C@H](Cc2ccc(C(=O)O)cc2)NC(=O)[C@H](Cc2ccncc2)NC(=O)[C@H](Cc2ccc(-c3ccc(C(=O)O)cc3)cc2)NC(=O)[C@H]2C[C@@H](Cc3ccc(F)cc3)CN2C(=O)CNC(=O)[C@H](CCN)NC(=O)[C@H](CCC(N)=O)NC(=O)[C@H](CCCNC(N)=O)NC(=O)C(C)(C)NC(=O)[C@H](Cc2c[nH]c3ccccc23)NC(=O)[C@H](CCC(=O)O)NC(=O)C(C)(C)NC1=O
B5: SEQ ID NO: 43 (peptide)
peptide: cyclo([Bip(4'-COOH)][Ala(1-bicyclo(1.1.1)pentyl)][Phe(4-COOH)]G[Pro(cis-4-F)][Trp(βS-Me,4-F)][Aib]EW[Aib][Ala(pyrimidin-5-yl)]Q[Dab]G[dPro(4R-(4-pyridylmethyl))])
SMILES: C[C@@H](c1c[nH]c2cccc(F)c12)[C@@H]1NC(=O)[C@@H]2C[C@H](F)CN2C(=O)CNC(=O)[C@H](Cc2ccc(C(=O)O)cc2)NC(=O)[C@H](CC23CC(C2)C3)NC(=O)[C@H](Cc2ccc(-c3ccc(C(=O)O)cc3)cc2)NC(=O)[C@H]2C[C@@H](Cc3ccncc3)CN2C(=O)CNC(=O)[C@H](CCN)NC(=O)[C@H](CCC(N)=O)NC(=O)[C@H](Cc2cncnc2)NC(=O)C(C)(C)NC(=O)[C@H](Cc2c[nH]c3ccccc23)NC(=O)[C@H](CCC(=O)O)NC(=O)C(C)(C)NC1=O
B6: SEQ ID NO: 5 (peptide)
peptide: cyclo([Bip(4'-COOH)][4Pal][Phe(4-COOH)]G[Pro(cis-4-F)][Trp(βS-Me,4-F)][Aib]SW[Aib]SQ[Dab]G[dPro(4R-Bzl(4-F))])
SMILES: C[C@@H](c1c[nH]c2cccc(F)c12)[C@@H]1NC(=O)[C@@H]2C[C@H](F)CN2C(=O)CNC(=O)[C@H](Cc2ccc(C(=O)O)cc2)NC(=O)[C@H](Cc2ccncc2)NC(=O)[C@H](Cc2ccc(-c3ccc(C(=O)O)cc3)cc2)NC(=O)[C@H]2C[C@@H](Cc3ccc(F)cc3)CN2C(=O)CNC(=O)[C@H](CCN)NC(=O)[C@H](CCC(N)=O)NC(=O)[C@H](CO)NC(=O)C(C)(C)NC(=O)[C@H](Cc2c[nH]c3ccccc23)NC(=O)[C@H](CO)NC(=O)C(C)(C)NC1=O
B7: SEQ ID NO: 44 (peptide)
peptide: cyclo([Bip(4'-COOH)][Ala(1-bicyclo(1.1.1)pentyl)][Phe(4-COOH)]G[Pro(cis-4-F)][Trp(βS-Me,4-F)][Aib]SW[Aib][Ala(pyrimidin-5-yl)]Q[Dab]G[dPro(4R-(4-pyridylmethyl))])
B8: SEQ ID NO: 45 (peptide)
peptide: cyclo([Bip(4'-COOH)][Ala(1-bicyclo(1.1.1)pentyl)][Phe(4-COOH)]G[Pro(cis-4-F)][Trp(βS-Me,4-F)][Aib]EW[Aib][4Pal]Q[Dab]G[dPro(4R-(4-pyridylmethyl))])
SMILES: C[C@@H](c1c[nH]c2cccc(F)c12)[C@@H]1NC(=O)[C@@H]2C[C@H](F)CN2C(=O)CNC(=O)[C@H](Cc2ccc(C(=O)O)cc2)NC(=O)[C@H](CC23CC(C2)C3)NC(=O)[C@H](Cc2ccc(-c3ccc(C(=O)O)cc3)cc2)NC(=O)[C@H]2C[C@@H](Cc3ccncc3)CN2C(=O)CNC(=O)[C@H](CCN)NC(=O)[C@H](CCC(N)=O)NC(=O)[C@H](Cc2ccncc2)NC(=O)C(C)(C)NC(=O)[C@H](Cc2c[nH]c3ccccc23)NC(=O)[C@H](CCC(=O)O)NC(=O)C(C)(C)NC1=O
B9: SEQ ID NO: 51 (peptide)
peptide: cyclo([Bip(4'-COOH)][4Pal][Phe(4-COOH)]G[Pro(cis-4-F)][Trp(βS-Me,4-F)][Aib]EW[Aib][Ala(pyrimidin-5-yl)]Q[Dab]G[dPro(3S-(4-Br-benzyl))])
B10: SEQ ID NO: 47 (peptide)
peptide: cyclo([Bip(4'-COOH)][4Pal][Phe(4-COOH)]G[Pro(cis-4-F)][Trp(βS-Me,4-F)][Aib]EW[Aib][4Pal]Q[Dap]G[dPro(4R-(4-pyridylmethyl))])
SMILES: C[C@@H](c1c[nH]c2cccc(F)c12)[C@@H]1NC(=O)[C@@H]2C[C@H](F)CN2C(=O)CNC(=O)[C@H](Cc2ccc(C(=O)O)cc2)NC(=O)[C@H](Cc2ccncc2)NC(=O)[C@H](Cc2ccc(-c3ccc(C(=O)O)cc3)cc2)NC(=O)[C@H]2C[C@@H](Cc3ccncc3)CN2C(=O)CNC(=O)[C@H](CN)NC(=O)[C@H](CCC(N)=O)NC(=O)[C@H](Cc2ccncc2)NC(=O)C(C)(C)NC(=O)[C@H](Cc2c[nH]c3ccccc23)NC(=O)[C@H](CCC(=O)O)NC(=O)C(C)(C)NC1=O
B11: SEQ ID NO: 46 (peptide)
peptide: cyclo([Bip(4'-COOH)][Ala(1-bicyclo(1.1.1)pentyl)][Phe(4-COOH)]G[Pro(cis-4-F)][Trp(βS-Me,4-F)][Aib]EW[Aib][Ala(pyrimidin-5-yl)]Q[Dap]G[dPro(4R-(4-pyridylmethyl))])
SMILES: C[C@@H](c1c[nH]c2cccc(F)c12)[C@@H]1NC(=O)[C@@H]2C[C@H](F)CN2C(=O)CNC(=O)[C@H](Cc2ccc(C(=O)O)cc2)NC(=O)[C@H](CC23CC(C2)C3)NC(=O)[C@H](Cc2ccc(-c3ccc(C(=O)O)cc3)cc2)NC(=O)[C@H]2C[C@@H](Cc3ccncc3)CN2C(=O)CNC(=O)[C@H](CN)NC(=O)[C@H](CCC(N)=O)NC(=O)[C@H](Cc2cncnc2)NC(=O)C(C)(C)NC(=O)[C@H](Cc2c[nH]c3ccccc23)NC(=O)[C@H](CCC(=O)O)NC(=O)C(C)(C)NC1=O
B12: SEQ ID NO: 48 (peptide)
peptide: cyclo([Bip(4'-COOH)][Ala(1-bicyclo(1.1.1)pentyl)][Phe(4-COOH)]G[Pro(cis-4-F)][Trp(βS-Me,4-F)][Aib]EW[Aib][4Pal]Q[Dap]G[dPro(4R-(4-pyridylmethyl))])
B13: SEQ ID NO: 54 (peptide)
peptide: cyclo([Bip(4'-COOH)][4Pal][Phe(4-COOH)]G[Pro(cis-4-F)][Trp(βS-Me,4-F)][Aib]EW[Aib][Ala(pyrimidin-5-yl)]Q[Dab]G[dProc3Bn4Pyrim2NMe])
SMILES: CNc1ncc(-c2ccc(C[C@H]3CCN4C(=O)CNC(=O)[C@H](CCN)NC(=O)[C@H](CCC(N)=O)NC(=O)[C@H](Cc5cncnc5)NC(=O)C(C)(C)NC(=O)[C@H](Cc5c[nH]c6ccccc56)NC(=O)[C@H](CCC(=O)O)NC(=O)C(C)(C)NC(=O)[C@H]([C@@H](C)c5c[nH]c6cccc(F)c56)NC(=O)[C@@H]5C[C@H](F)CN5C(=O)CNC(=O)[C@H](Cc5ccc(C(=O)O)cc5)NC(=O)[C@H](Cc5ccncc5)NC(=O)[C@H](Cc5ccc(-c6ccc(C(=O)O)cc6)cc5)NC(=O)[C@@H]34)cc2)cn1

Each binder was assayed against Recombinant human IL-1β (BioLegend 579404) (human, UniProt P01584 117-269) (assay: cell-based or functional assay).

MRC5 IC50 [nM] | Binder
0.018 | B1
0.044 | B2
0.047 | B3
0.021 | B4
0.026 | B5
0.039 | B6
0.021 | B7
0.027 | B8
0.014 | B9
0.029 | B10
0.034 | B11
0.027 | B12
0.021 | B13
